# Experiments:
# HeLa Kyoto [1] = experiment: solubility change mitosis vs G1/S (difference of NP-40 vs SDS log2 ratios) (log2 ratio difference); higher = more soluble in mitosis
# HeLa Kyoto [2] = experiment: thermal stability score vs G1/S (z-score of summed log2 fold changes over temperatures); higher = more thermally stable than in G1/S
# HeLa Kyoto [3] = experiment: melting temperature (median over replicates), in situ; higher = more thermally stable
# HeLa Kyoto [4] = experiment: solubility in G1/S (NP-40 vs SDS abundance) (log2 ratio); higher = more soluble; details: cell cycle stage: G1/S
# [5] = cell cycle stage: early G1 (4.5 h after nocodazole release)
# 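Wherever melting temperature (median over replicates), in situ is given: HeLa Kyoto cells synchronized by double thymidine or nocodazole block, proteins quantified by TMT10plex mass spectrometry, three independent biological replicates.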
# 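Wherever solubility change mitosis vs G1/S (difference of NP-40 vs SDS log2 ratios) is given: synchronized HeLa Kyoto cells (double thymidine block for G1/S, nocodazole release for mitosis), protein amounts in NP-40 versus SDS lysates quantified by mass spectrometry, three biological replicates.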
# 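Wherever solubility in G1/S (NP-40 vs SDS abundance) is given: HeLa Kyoto cells arrested at G1/S by double thymidine block, proteins quantified by TMT10plex mass spectrometry in mild NP-40 versus SDS extracts, three biological replicates.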
# 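Wherever thermal stability score vs G1/S (z-score of summed log2 fold changes over temperatures) is given: synchronized HeLa Kyoto cells, proteins quantified by TMT10plex mass spectrometry, three biological replicates, mitosis taken 0.5 h after nocodazole release, G1/S directly after double thymidine block.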
Sequence,solubility change mitosis (log2) (HeLa Kyoto [1]),thermal stability score (HeLa Kyoto [2]; [5]),thermal stability score (HeLa Kyoto [2]; cell cycle stage: mitosis),melting temperature (HeLa Kyoto [3]; cell cycle stage: G1/S),melting temperature (HeLa Kyoto [3]; cell cycle stage: mitosis),solubility in G1/S (log2) (HeLa Kyoto [4])
MATPSAAFEALMNGVTSWDVPEDAVPCELLLIGEASFPVMVNDMGQVLIAASSYGRGRLVVVSHEDYLVEAQLTPFLLNAVGWLCSSPGAPIGVHPSLAPLAKILEGSGVDAKVEPEVKDSLGVYCIDAYNETMTEKLVKFMKCGGGLLIGGQAWDWANQGEDERVLFTFPGNLVTSVAGIYFTDNKGDTSFFKVSKKMPKIPVLVSCEDDLSDDREELLHGISELDISNSDCFPSQLLVHGALAFPLGLDSYHGCVIAAARYGRGRVVVTGHKVLFTVGKLGPFLLNAVRWLDGGRRGKVVVQTELRTLSGLLAVGGIDTSIEPNLTSDASVYCFEPVSEVGVKELQEFVAEGGGLFVGAQAWWWAFKNPGVSPLARFPGNLLLNPFGISITSQSLNPGPFRTPKAGIRTYHFRSTLAEFQVIMGRKRGNVEKGWLAKLGPDGAAFLQIPAEEIPAYMSVHRLLRKLLSRYRLPVATRENPVINDCCRGAMLSLATGLAHSGSDLSLLVPEIEDMYSSPYLRPSESPITVEVNCTNPGTRYCWMSTGLYIPGRQIIEVSLPEAAASADLKIQIGCHTDDLTRASKLFRGPLVINRCCLDKPTKSITCLWGGLLYIIVPQNSKLGSVPVTVKGAVHAPYYKLGETTLEEWKRRIQENPGPWGELATDNIILTVPTANLRTLENPEPLLRLWDEVMQAVARLGAEPFPLRLPQRIVADVQISVGWMHAGYPIMCHLESVQELINEKLIRTKGLWGPVHELGRNQQRQEWEFPPHTTEATCNLWCVYVHETVLGIPRSRANIALWPPVREKRVRIYLSKGPNVKNWNAWTALETYLQLQEAFGWEPFIRLFTEYRNQTNLPTENVDKMNLWVKMFSHQVQKNLAPFFEAWAWPIQKEVATSLAYLPEWKENIMKLYLLTQMPH [TCAF1],-0.185,0.502,2.06,49.9 °C,49.8 °C,-0.143
MATRQRESSITSCCSTSSCDADDEGVRGTCEDASLCKRFAVSIGYWHDPYIQHFVRLSKERKAPEINRGYFARVHGVSQLIKAFLRKTECHCQIVNLGAGMDTTFWRLKDEDLLPSKYFEVDFPMIVTRKLHSIKCKPPLSSPILELHSEDTLQMDGHILDSKRYAVIGADLRDLSELEEKLKKCNMNTQLPTLLIAECVLVYMTPEQSANLLKWAANSFERAMFINYEQVNMGDRFGQIMIENLRRRQCDLAGVETCKSLESQKERLLSNGWETASAVDMMELYNRLPRAEVSRIESLEFLDEMELLEQLMRHYCLCWATKGGNELGLKEITY [LCMT1],-0.123,0.211,0.493,52.1 °C,53.5 °C,0.181
MATSPQKSPSVPKSPTPKSPPSRKKDDSFLGKLGGTLARRKKAKEVSELQEEGMNAINLPLSPIPFELDPEDTMLEENEVRTMVDPNSRSDPKLQELMKVLIDWINDVLVGERIIVKDLAEDLYDGQVLQKLFEKLESEKLNVAEVTQSEIAQKQKLQTVLEKINETLKLPPRSIKWNVDSVHAKSLVAILHLLVALSQYFRAPIRLPDHVSIQVVVVQKREGILQSRQIQEEITGNTEALSGRHERDAFDTLFDHAPDKLNVVKKTLITFVNKHLNKLNLEVTELETQFADGVYLVLLMGLLEGYFVPLHSFFLTPDSFEQKVLNVSFAFELMQDGGLEKPKPRPEDIVNCDLKSTLRVLYNLFTKYRNVE [PARVA],-0.0689,1.2,1.23,51 °C,50.8 °C,0.479
MATSRYEPVAEIGVGAYGTVYKARDPHSGHFVALKSVRVPNGGGGGGGLPISTVREVALLRRLEAFEHPNVVRLMDVCATSRTDREIKVTLVFEHVDQDLRTYLDKAPPPGLPAETIKDLMRQFLRGLDFLHANCIVHRDLKPENILVTSGGTVKLADFGLARIYSYQMALTPVVVTLWYRAPEVLLQSTYATPVDMWSVGCIFAEMFRRKPLFCGNSEADQLGKIFDLIGLPPEDDWPRDVSLPRGAFPPRGPRPVQSVVPEMEESGAQLLLEMLTFNPHKRISAFRALQHSYLHKDEGNPE [CDK4],-0.121,0.0522,-0.366,52.7 °C,52.4 °C,0.218
MATSVLCCLRCCRDGGTGHIPLKEMPAVQLDTQHMGTDVVIVKNGRRICGTGGCLASAPLHQNKSYFEFKIQSTGIWGIGVATQKVNLNQIPLGRDMHSLVMRNDGALYHNNEEKNRLPANSLPQEGDVVGITYDHVELNVYLNGKNMHCPASGIRGTVYPVVYVDDSAILDCQFSEFYHTPPPGFEKILFEQQIF [SPRYD7],-0.19,0.0977,-1.67,52.6 °C,54.2 °C,0.156
